According to patent US20190015483A1 (CSL BEHRING RECOMBINANT FACILITY, published 2019):

T1: recombinant Factor VIII (CSL627, rVIII-SingleChain) (Homo sapiens (Human), UniProt P00451 20-2351)
T1 construct: also called FVIII
T1 sequence: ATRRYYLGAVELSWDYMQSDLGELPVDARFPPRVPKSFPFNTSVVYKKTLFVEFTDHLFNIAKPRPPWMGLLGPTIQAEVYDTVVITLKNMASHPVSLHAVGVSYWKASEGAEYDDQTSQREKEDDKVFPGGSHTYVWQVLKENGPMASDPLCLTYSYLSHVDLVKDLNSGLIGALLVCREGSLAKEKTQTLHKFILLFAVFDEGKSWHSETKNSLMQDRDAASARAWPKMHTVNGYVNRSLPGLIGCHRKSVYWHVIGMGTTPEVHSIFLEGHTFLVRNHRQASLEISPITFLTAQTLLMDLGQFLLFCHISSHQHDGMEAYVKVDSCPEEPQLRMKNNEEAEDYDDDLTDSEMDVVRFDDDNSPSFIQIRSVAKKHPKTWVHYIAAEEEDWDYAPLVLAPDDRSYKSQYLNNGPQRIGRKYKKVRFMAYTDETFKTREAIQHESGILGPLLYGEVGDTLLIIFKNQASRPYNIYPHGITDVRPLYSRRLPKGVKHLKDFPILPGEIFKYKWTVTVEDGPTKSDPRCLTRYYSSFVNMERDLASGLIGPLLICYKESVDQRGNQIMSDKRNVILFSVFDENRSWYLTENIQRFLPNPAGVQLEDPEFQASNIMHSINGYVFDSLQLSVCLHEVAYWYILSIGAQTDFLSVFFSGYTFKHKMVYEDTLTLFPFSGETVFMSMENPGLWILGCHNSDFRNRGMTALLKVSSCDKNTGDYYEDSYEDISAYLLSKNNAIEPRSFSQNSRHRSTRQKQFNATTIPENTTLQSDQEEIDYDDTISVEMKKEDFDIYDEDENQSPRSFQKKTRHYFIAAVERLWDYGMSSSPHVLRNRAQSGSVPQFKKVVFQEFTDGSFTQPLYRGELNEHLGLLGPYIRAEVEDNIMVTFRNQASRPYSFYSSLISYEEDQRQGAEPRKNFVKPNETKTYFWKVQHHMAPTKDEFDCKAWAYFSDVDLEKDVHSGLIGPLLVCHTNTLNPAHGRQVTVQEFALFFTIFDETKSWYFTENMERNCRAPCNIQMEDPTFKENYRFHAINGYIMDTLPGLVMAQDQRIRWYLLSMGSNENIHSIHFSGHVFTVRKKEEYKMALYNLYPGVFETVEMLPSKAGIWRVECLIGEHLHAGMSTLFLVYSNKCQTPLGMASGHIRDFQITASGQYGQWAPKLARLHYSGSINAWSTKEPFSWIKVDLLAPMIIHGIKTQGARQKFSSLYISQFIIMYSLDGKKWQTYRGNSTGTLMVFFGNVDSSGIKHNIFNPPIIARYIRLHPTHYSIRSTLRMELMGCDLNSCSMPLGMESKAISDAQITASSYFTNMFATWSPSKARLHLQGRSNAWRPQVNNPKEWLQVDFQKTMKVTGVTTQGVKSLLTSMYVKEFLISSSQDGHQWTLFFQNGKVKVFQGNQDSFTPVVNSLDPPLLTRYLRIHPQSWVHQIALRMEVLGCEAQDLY


Each binder was assayed against T1, recombinant Factor VIII (CSL627, …) (assay: SPR, anti-His capture, FVIII injected, 37 C).
Protocol: Binding kinetics were investigated by surface plasmon resonance using a Biacore 4000 biosensor at 37° C. Each mutant was captured from cell culture medium to a density of 40-150 RU on a CM-5 sensor chip pre-immobilised with anti-His antibody (14,000 RU). In an initial screening study, FVIII was injected over the captured mutants for 5 minutes at 1 nM and dissociation monitored for 5 minutes.
All sensorgrams were double referenced by subtraction of signals from a reference spot (containing only immobilised anti His antibody) and from a blank injection. Binding kinetics were determined by fitting the double referenced sensorgrams to a 1:1 kinetic model.

Binder | Kd | koff | kon | binding result
Hu-vWF[764-1270]-8His S766W-S806Q (other) SLWCRPPMVKLVCPADNLRAEGLECTKTCQNYDLECMSMGCVQGCLCPPGMVRHENRCVALERCPCFHQGKEYAPGETVKIGCNTCVCRDRKWNCTDHVCDATCSTIGMAHYLTFDGLKYLFPGECQYVLVQDYCGSNPGTFRILVGNKGCSHPSVKCKKRVTILVEGGEIELFDGEVNVKRPMKDETHFEVVESGRYIILLLGKALSVVWDRHLSISVVLKQTYQEKVCGLCGNFDGIQNNDLTSSNLQVEEDPVDFGNSWKVSSQCADTRKVPLDSSPATCHNNIMKQTMVDSSCRILTSDVFQDCNKLVDPEPYLDVCIYDTCSCESIGDCACFCDTIAAYAHVCAQHGKVVTWRTATLCPQSCEERNLRENGYECEWRYNSCAPACQVTCQHPEPLACPVQCVEGCHAHCPPGKILDELLQTCVDPEDCPVCEVAGRRFASGKKVTLNPSDPEHCQICHCDVVNLTCEACQEPGGLVVPPTDAPVSPTTLYVEDISEPPLHDFHHHHHHHH | 0.407 nM | 0.00176 s⁻¹ | 4.33e+06 M⁻¹ s⁻¹ | 
Hu-vWF[764-1270]-8His S766W-S806W (other) SLWCRPPMVKLVCPADNLRAEGLECTKTCQNYDLECMSMGCVWGCLCPPGMVRHENRCVALERCPCFHQGKEYAPGETVKIGCNTCVCRDRKWNCTDHVCDATCSTIGMAHYLTFDGLKYLFPGECQYVLVQDYCGSNPGTFRILVGNKGCSHPSVKCKKRVTILVEGGEIELFDGEVNVKRPMKDETHFEVVESGRYIILLLGKALSVVWDRHLSISVVLKQTYQEKVCGLCGNFDGIQNNDLTSSNLQVEEDPVDFGNSWKVSSQCADTRKVPLDSSPATCHNNIMKQTMVDSSCRILTSDVFQDCNKLVDPEPYLDVCIYDTCSCESIGDCACFCDTIAAYAHVCAQHGKVVTWRTATLCPQSCEERNLRENGYECEWRYNSCAPACQVTCQHPEPLACPVQCVEGCHAHCPPGKILDELLQTCVDPEDCPVCEVAGRRFASGKKVTLNPSDPEHCQICHCDVVNLTCEACQEPGGLVVPPTDAPVSPTTLYVEDISEPPLHDFHHHHHHHH |  |  |  | no binding
Hu-vWF[764-1270]-8His S766W-S806Y (other) SLWCRPPMVKLVCPADNLRAEGLECTKTCQNYDLECMSMGCVYGCLCPPGMVRHENRCVALERCPCFHQGKEYAPGETVKIGCNTCVCRDRKWNCTDHVCDATCSTIGMAHYLTFDGLKYLFPGECQYVLVQDYCGSNPGTFRILVGNKGCSHPSVKCKKRVTILVEGGEIELFDGEVNVKRPMKDETHFEVVESGRYIILLLGKALSVVWDRHLSISVVLKQTYQEKVCGLCGNFDGIQNNDLTSSNLQVEEDPVDFGNSWKVSSQCADTRKVPLDSSPATCHNNIMKQTMVDSSCRILTSDVFQDCNKLVDPEPYLDVCIYDTCSCESIGDCACFCDTIAAYAHVCAQHGKVVTWRTATLCPQSCEERNLRENGYECEWRYNSCAPACQVTCQHPEPLACPVQCVEGCHAHCPPGKILDELLQTCVDPEDCPVCEVAGRRFASGKKVTLNPSDPEHCQICHCDVVNLTCEACQEPGGLVVPPTDAPVSPTTLYVEDISEPPLHDFHHHHHHHH |  |  |  | no binding
Hu-vWF[764-1270]-8His S766W-S806R (other) SLWCRPPMVKLVCPADNLRAEGLECTKTCQNYDLECMSMGCVRGCLCPPGMVRHENRCVALERCPCFHQGKEYAPGETVKIGCNTCVCRDRKWNCTDHVCDATCSTIGMAHYLTFDGLKYLFPGECQYVLVQDYCGSNPGTFRILVGNKGCSHPSVKCKKRVTILVEGGEIELFDGEVNVKRPMKDETHFEVVESGRYIILLLGKALSVVWDRHLSISVVLKQTYQEKVCGLCGNFDGIQNNDLTSSNLQVEEDPVDFGNSWKVSSQCADTRKVPLDSSPATCHNNIMKQTMVDSSCRILTSDVFQDCNKLVDPEPYLDVCIYDTCSCESIGDCACFCDTIAAYAHVCAQHGKVVTWRTATLCPQSCEERNLRENGYECEWRYNSCAPACQVTCQHPEPLACPVQCVEGCHAHCPPGKILDELLQTCVDPEDCPVCEVAGRRFASGKKVTLNPSDPEHCQICHCDVVNLTCEACQEPGGLVVPPTDAPVSPTTLYVEDISEPPLHDFHHHHHHHH | 1.29 nM | 0.0107 s⁻¹ | 8.28e+06 M⁻¹ s⁻¹ | 

Further binders by falling Kd, results first:

Kd | koff | kon | binding result | Binder
0.165 nM | 0.000763 s⁻¹ | 4.63e+06 M⁻¹ s⁻¹ |  | Hu-vWF[764-1270]-8His S766Y-P769D (other) SLYCRDPMVKLVCPADNLRAEGLECTKTCQNYDLECMSMGCVSGCLCPPGMVRHENRCVALERCPCFHQGKEYAPGETVKIGCNTCVCRDRKWNCTDHVCDATCSTIGMAHYLTFDGLKYLFPGECQYVLVQDYCGSNPGTFRILVGNKGCSHPSVKCKKRVTILVEGGEIELFDGEVNVKRPMKDETHFEVVESGRYIILLLGKALSVVWDRHLSISVVLKQTYQEKVCGLCGNFDGIQNNDLTSSNLQVEEDPVDFGNSWKVSSQCADTRKVPLDSSPATCHNNIMKQTMVDSSCRILTSDVFQDCNKLVDPEPYLDVCIYDTCSCESIGDCACFCDTIAAYAHVCAQHGKVVTWRTATLCPQSCEERNLRENGYECEWRYNSCAPACQVTCQHPEPLACPVQCVEGCHAHCPPGKILDELLQTCVDPEDCPVCEVAGRRFASGKKVTLNPSDPEHCQICHCDVVNLTCEACQEPGGLVVPPTDAPVSPTTLYVEDISEPPLHDFHHHHHHHH
0.149 nM | 0.000619 s⁻¹ | 4.17e+06 M⁻¹ s⁻¹ |  | Hu-vWF[764-1270]-8His S766W-S806V (other) SLWCRPPMVKLVCPADNLRAEGLECTKTCQNYDLECMSMGCVVGCLCPPGMVRHENRCVALERCPCFHQGKEYAPGETVKIGCNTCVCRDRKWNCTDHVCDATCSTIGMAHYLTFDGLKYLFPGECQYVLVQDYCGSNPGTFRILVGNKGCSHPSVKCKKRVTILVEGGEIELFDGEVNVKRPMKDETHFEVVESGRYIILLLGKALSVVWDRHLSISVVLKQTYQEKVCGLCGNFDGIQNNDLTSSNLQVEEDPVDFGNSWKVSSQCADTRKVPLDSSPATCHNNIMKQTMVDSSCRILTSDVFQDCNKLVDPEPYLDVCIYDTCSCESIGDCACFCDTIAAYAHVCAQHGKVVTWRTATLCPQSCEERNLRENGYECEWRYNSCAPACQVTCQHPEPLACPVQCVEGCHAHCPPGKILDELLQTCVDPEDCPVCEVAGRRFASGKKVTLNPSDPEHCQICHCDVVNLTCEACQEPGGLVVPPTDAPVSPTTLYVEDISEPPLHDFHHHHHHHH
0.125 nM | 0.000654 s⁻¹ | 5.25e+06 M⁻¹ s⁻¹ |  | Hu-vWF[764-1270]-8His S766W-S806T (other) SLWCRPPMVKLVCPADNLRAEGLECTKTCQNYDLECMSMGCVTGCLCPPGMVRHENRCVALERCPCFHQGKEYAPGETVKIGCNTCVCRDRKWNCTDHVCDATCSTIGMAHYLTFDGLKYLFPGECQYVLVQDYCGSNPGTFRILVGNKGCSHPSVKCKKRVTILVEGGEIELFDGEVNVKRPMKDETHFEVVESGRYIILLLGKALSVVWDRHLSISVVLKQTYQEKVCGLCGNFDGIQNNDLTSSNLQVEEDPVDFGNSWKVSSQCADTRKVPLDSSPATCHNNIMKQTMVDSSCRILTSDVFQDCNKLVDPEPYLDVCIYDTCSCESIGDCACFCDTIAAYAHVCAQHGKVVTWRTATLCPQSCEERNLRENGYECEWRYNSCAPACQVTCQHPEPLACPVQCVEGCHAHCPPGKILDELLQTCVDPEDCPVCEVAGRRFASGKKVTLNPSDPEHCQICHCDVVNLTCEACQEPGGLVVPPTDAPVSPTTLYVEDISEPPLHDFHHHHHHHH
0.106 nM | 0.000519 s⁻¹ | 4.9e+06 M⁻¹ s⁻¹ |  | Hu-vWF[764-1270]-8His S766Y-P769A (other) SLYCRAPMVKLVCPADNLRAEGLECTKTCQNYDLECMSMGCVSGCLCPPGMVRHENRCVALERCPCFHQGKEYAPGETVKIGCNTCVCRDRKWNCTDHVCDATCSTIGMAHYLTFDGLKYLFPGECQYVLVQDYCGSNPGTFRILVGNKGCSHPSVKCKKRVTILVEGGEIELFDGEVNVKRPMKDETHFEVVESGRYIILLLGKALSVVWDRHLSISVVLKQTYQEKVCGLCGNFDGIQNNDLTSSNLQVEEDPVDFGNSWKVSSQCADTRKVPLDSSPATCHNNIMKQTMVDSSCRILTSDVFQDCNKLVDPEPYLDVCIYDTCSCESIGDCACFCDTIAAYAHVCAQHGKVVTWRTATLCPQSCEERNLRENGYECEWRYNSCAPACQVTCQHPEPLACPVQCVEGCHAHCPPGKILDELLQTCVDPEDCPVCEVAGRRFASGKKVTLNPSDPEHCQICHCDVVNLTCEACQEPGGLVVPPTDAPVSPTTLYVEDISEPPLHDFHHHHHHHH
